Target: RexT, redox-sensing transcriptional regulator of Nostoc (Anabaena) sp. PCC 7120, tag-free, reduced (Nostoc (Anabaena) sp. PCC 7120)
Test: SEC; HiLoad 16/600 Superdex 200 pg, 50 mM HEPES pH 7.5, 100 mM NaCl, 5% v/v glycerol, 2 mM DTT

stoichiometry N: 2
Substance: RexT, redox-sensing transcriptional regulator of Nostoc (Anabaena) sp. PCC 7120, tag-free, reduced (natural protein)

Source: article PMC8960804
